Data taken from CN111574631A.

Tests used:
硫氧还蛋白(Thioredoxin，Trx) [1] = experiment: indirect ELISA, Trx coated at 1 ug/ml, antibody 1000 ng/ml, goat anti-mouse IgG-HRP, OD450 (ref 630)
硫氧还蛋白(Thioredoxin，Trx) [2] = experiment: indirect ELISA, Trx coated at 1 ug/ml, antibody 125 ng/ml, goat anti-mouse IgG-HRP, OD450 (ref 630)
硫氧还蛋白(Thioredoxin，Trx) [3] = experiment: indirect ELISA, Trx coated at 3 ug/ml, supernatant of transiently transfected CHO cells diluted 1000-fold, goat anti-mouse-HRP, OD450 (ref 630)
硫氧还蛋白(Thioredoxin，Trx) [4] = experiment: indirect ELISA, Trx coated at 1 ug/ml, antibody 1.95 ng/ml, goat anti-mouse IgG-HRP, OD450 (ref 630)
硫氧还蛋白(Thioredoxin，Trx) [5] = experiment: indirect ELISA, Trx coated at 1 ug/ml, antibody 15.63 ng/ml, goat anti-mouse IgG-HRP, OD450 (ref 630)
硫氧还蛋白(Thioredoxin，Trx) [6] = experiment: indirect ELISA, Trx coated at 1 ug/ml, antibody 0 ng/ml (blank well), goat anti-mouse IgG-HRP, OD450 (ref 630)

硫氧还蛋白(Thioredoxin，Trx), sequence (P0AA25 2-109): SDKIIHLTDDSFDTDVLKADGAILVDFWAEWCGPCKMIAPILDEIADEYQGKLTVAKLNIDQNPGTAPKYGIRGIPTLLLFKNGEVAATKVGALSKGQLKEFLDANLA

OD (硫氧还蛋白(Thioredoxin，Trx) [1]): 2.31 OD
OD (硫氧还蛋白(Thioredoxin，Trx) [2]): 2.14 OD
OD (硫氧还蛋白(Thioredoxin，Trx) [3]): > 1 OD
OD (硫氧还蛋白(Thioredoxin，Trx) [4]): 0.488 OD
OD (硫氧还蛋白(Thioredoxin，Trx) [5]): 1.62 OD
OD (硫氧还蛋白(Thioredoxin，Trx) [6]): 0.057 OD
B1: 实施例4的硫氧还蛋白的单克隆抗体(WT) (antibody, mouse IgG1, kappa, V domains shown)
VH: EVQLQQSGPMLVKPGASVTISCKASGFTITDYNLHWVRQSHGKSLEWIGYITSYNGGTGYNQKFKTKATLTVDKSSTTAYMELRSLTSDDSALYYCARNFRNYFEHWGQGTTLTVSS
VL: DIQMTQPTSSLSASLGDRVTISCRASQDLYNSINWYQQKPDGTVKLLIYYTSRIHSGVPSRFSGSGSGTDYSLTISNLEQEDIATYFCQQGNSIPRTFGGGTKLEIKR
